pKd: −log10 of the molar value.
Experiments:
[1] = target: HLA-A*02:19; assay: IEDB peptide-MHC binding, purified MHC/competitive/fluorescence; filed as Kd, often an IC50 or EC50 that approximates it; ≥ and ≤ were set here for values at or beyond the usual limits of such assays
[2] = target: HLA-A*02:01; assay: as above
[3] = target: HLA-A*03:01; assay: IEDB peptide-MHC binding, purified MHC/direct/fluorescence; filed as Kd, often an IC50 or EC50 that approximates it; ≥ and ≤ were set here for values at or beyond the usual limits of such assays
[4] = target: HLA-A*24:03; assay: as above
[5] = target: HLA-B*40:01; assay: as above
[6] = target: HLA-A*26:01; assay: as above
[7] = target: HLA-B*15:01; assay: as above
[8] = target: HLA-A*31:01; assay: as above
[9] = target: HLA-A*02:01; assay: as above
[10] = target: HLA-B*27:05; assay: as above
[11] = target: HLA-B*08:01; assay: as above
[12] = target: HLA-B*58:01; assay: as above
[13] = target: HLA-B*35:01; assay: as above
[14] = target: HLA-A*01:01; assay: as above
[15] = target: HLA-A*11:01; assay: as above
[16] = target: HLA-A*30:01; assay: as above; settings: source organism: Salmonella enterica subsp. enterica serovar Typhi
[17] = target: HLA-A*69:01; assay: as above
[18] = target: HLA-C*12:03; assay: as above
[19] = target: HLA-A*03:01; assay: IEDB peptide-MHC binding, purified MHC/competitive/fluorescence; filed as Kd, often an IC50 or EC50 that approximates it; ≥ and ≤ were set here for values at or beyond the usual limits of such assays; settings: source organism: Salmonella enterica subsp. enterica serovar Choleraesuis str. SC-B67
[20] = target: HLA-A*24:03; assay: as above
[21] = target: HLA-A*26:01; assay: as above; settings: source organism: Salmonella enterica subsp. enterica serovar Choleraesuis str. SC-B67
[22] = target: HLA-B*15:01; assay: as above; settings: source organism: Salmonella enterica subsp. enterica serovar Choleraesuis str. SC-B67
[23] = target: HLA-A*23:01; assay: as above; settings: source organism: Salmonella enterica subsp. enterica serovar Choleraesuis str. SC-B67
[24] = target: HLA-B*39:01; assay: as above; settings: source organism: Salmonella enterica subsp. enterica serovar Choleraesuis str. SC-B67
[25] = target: HLA-B*46:01; assay: as above; settings: source organism: Salmonella enterica subsp. enterica serovar Choleraesuis str. SC-B67
[26] = target: HLA-A*29:02; assay: as above; settings: source organism: Salmonella enterica subsp. enterica serovar Choleraesuis str. SC-B67
[27] = target: HLA-B*57:01; assay: as above; settings: source organism: Salmonella enterica subsp. enterica serovar Choleraesuis str. SC-B67
[28] = target: HLA-B*27:03; assay: as above; settings: source organism: Salmonella enterica subsp. enterica serovar Choleraesuis str. SC-B67
[29] = target: HLA-B*15:17; assay: as above; settings: source organism: Salmonella enterica subsp. enterica serovar Choleraesuis str. SC-B67
[30] = target: HLA-B*18:01; assay: as above; settings: source organism: Salmonella enterica subsp. enterica serovar Choleraesuis str. SC-B67
[31] = target: HLA-A*02:12; assay: as above; settings: source organism: Burkholderia pseudomallei 668
[32] = target: HLA-B*07:02; assay: IEDB peptide-MHC binding, purified MHC/direct/fluorescence; filed as Kd, often an IC50 or EC50 that approximates it; ≥ and ≤ were set here for values at or beyond the usual limits of such assays
[33] = target: HLA-B*57:01; assay: as above
[34] = target: HLA-B*15:17; assay: as above
[35] = target: HLA-C*06:02; assay: as above
[36] = target: HLA-B*15:42; assay: IEDB peptide-MHC binding, purified MHC/competitive/fluorescence; filed as Kd, often an IC50 or EC50 that approximates it; ≥ and ≤ were set here for values at or beyond the usual limits of such assays; settings: source organism: Burkholderia mallei SAVP1
[37] = target: HLA-B*83:01; assay: as above; settings: source organism: Burkholderia mallei SAVP1
[38] = target: HLA-B*45:06; assay: as above; settings: source organism: Burkholderia mallei SAVP1
[39] = target: HLA-C*05:01; assay: IEDB peptide-MHC binding, purified MHC/direct/fluorescence; filed as Kd, often an IC50 or EC50 that approximates it; ≥ and ≤ were set here for values at or beyond the usual limits of such assays
[40] = target: HLA-B*48:01; assay: as above; settings: source organism: West Nile virus
[41] = target: HLA-B*44:02; assay: as above
[42] = source organism: Acinetobacter baylyi
[43] = source organism: Salmonella enterica
[44] = source organism: Salmonella enterica subsp. enterica serovar Typhi
[45] = source organism: Salmonella enterica subsp. enterica serovar Choleraesuis str. SC-B67
[46] = source organism: Rickettsia felis
[47] = source organism: Rickettsia prowazekii
[48] = source organism: Burkholderia thailandensis
[49] = source organism: Brucella abortus 2308
[50] = source organism: Brucella melitensis
[51] = source organism: Vibrio parahaemolyticus

DLMLLSYSL
pKd [1, 42]: 7.85 | pKd [2, 42]: 6.80

EHFYWGSVF
pKd [3, 43]: ≤ 4.70 | pKd [4, 44]: 6.50 | pKd [5, 43]: ≤ 4.70 | pKd [6, 43]: ≤ 4.70 | pKd [7, 44]: 5.72 | pKd [8, 43]: ≤ 4.70 | pKd [9, 43]: ≤ 4.70 | pKd [10, 43]: ≤ 4.70 | pKd [11, 43]: ≤ 4.70 | pKd [12, 43]: ≤ 4.70 | pKd [13, 44]: 6.37 | pKd [14, 43]: ≤ 4.70 | pKd [15, 44]: 5.10 | pKd [16]: 4.72 | pKd [17, 43]: ≤ 4.70

FTRDTGATL
pKd ([18]; source organism: Mycobacterium tuberculosis variant bovis BCG str. Pasteur 1173P2): ≥ 9.00

GIALAVPCV
pKd [19]: ≤ 4.70 | pKd [20, 45]: ≤ 4.70 | pKd [1, 45]: 8.74 | pKd [21]: ≤ 4.70 | pKd [22]: ≤ 4.70 | pKd [23]: ≤ 4.70 | pKd [2, 45]: 9.15 | pKd [24]: ≤ 4.70 | pKd [25]: ≤ 4.70 | pKd [26]: 5.52 | pKd [27]: ≤ 4.70 | pKd [28]: ≤ 4.70 | pKd [29]: ≤ 4.70 | pKd [30]: ≤ 4.70

GIYGAVIPL
pKd ([2]; source organism: Burkholderia pseudomallei 668): ≥ 10.00 | pKd [31]: 8.07

GSFKEYVFW
pKd [3, 46]: ≤ 4.70 | pKd [5, 46]: ≤ 4.70 | pKd [6, 46]: ≤ 4.70 | pKd [32, 46]: ≤ 4.70 | pKd [7, 47]: 5.24 | pKd [8, 46]: ≤ 4.70 | pKd [9, 46]: ≤ 4.70 | pKd [10, 46]: ≤ 4.70 | pKd [11, 46]: ≤ 4.70 | pKd [12, 47]: 8.11 | pKd [13, 47]: 5.72 | pKd [14, 46]: ≤ 4.70 | pKd [33, 46]: 6.78 | pKd [15, 46]: ≤ 4.70 | pKd [17, 46]: ≤ 4.70 | pKd [34, 46]: 6.98

IRHNKDRKV
pKd ([35]; source organism: Mus musculus): 7.59

MALATGLWW
pKd [12, 48]: 9.30 | pKd ([33]; source organism: Burkholderia mallei ATCC 23344): 7.48 | pKd [34, 48]: 9.40 | pKd [36]: ≤ 5.30 | pKd [37]: ≤ 5.30 | pKd [38]: ≤ 5.30

MTIGMANLI
pKd ([39]; source organism: Influenza A virus (A/California/04/2009(H1N1))): ≤ 4.70

RRSRRSLTV
pKd ([35]; source organism: West Nile virus): 7.44 | pKd [40]: ≤ 4.70

TPPVDRMAV
pKd [3, 49]: ≤ 4.70 | pKd [4, 49]: ≤ 4.70 | pKd [5, 49]: ≤ 4.70 | pKd [6, 49]: ≤ 4.70 | pKd [32, 50]: 6.54 | pKd [8, 49]: ≤ 4.70 | pKd [9, 49]: ≤ 4.70 | pKd [10, 49]: ≤ 4.70 | pKd [11, 50]: 5.04 | pKd [12, 49]: ≤ 4.70 | pKd [13, 50]: 5.97 | pKd [14, 49]: ≤ 4.70 | pKd [41, 49]: ≤ 4.70 | pKd [15, 49]: ≤ 4.70 | pKd [17, 49]: ≤ 4.70

VADEIAFGL
pKd ([39]; source organism: Escherichia coli E22): ≥ 9.00

VSFICTTIL
pKd ([18]; source organism: Murid gammaherpesvirus 4): 6.31

YREAGIPVL
pKd [3, 51]: ≤ 4.70 | pKd [5, 51]: ≤ 4.70 | pKd [6, 51]: ≤ 4.70 | pKd [32, 51]: ≤ 4.70 | pKd [7, 51]: ≤ 4.70 | pKd [8, 51]: ≤ 4.70 | pKd [9, 51]: ≤ 4.70 | pKd [10, 51]: 6.18 | pKd [11, 51]: ≤ 4.70 | pKd [12, 51]: ≤ 4.70 | pKd [13, 51]: 6.00 | pKd [14, 51]: ≤ 4.70 | pKd [41, 51]: ≤ 4.70 | pKd [15, 51]: ≤ 4.70 | pKd [17, 51]: ≤ 4.70

YYVMGGAFL
pKd ([20]; source organism: Bacillus anthracis str. A0488): 9.52
